According to publication PMC5840378, “Cytochrome c speeds up caspase cascade activation by blocking 14-3-3ε-dependent Apaf-1 inhibition” (Cell Death & Disease, 2018):
No end group written: not given here.

What was measured:
[1] = target: T1, cytochrome c (Cc), recombinant (human, UniProt P99999 1-105, heme group; 15N-labelled for the 2D NMR titrations); test: NMR titration; 50 μM reduced 15N-labelled Cc titrated with unlabeled 14-3-3ε FL (700 MHz) or 14-3-3ε_(234-255) peptide (600 MHz); 1D 1H and 2D [1H,15N] HSQC; 25 °C; 5 mM sodium phosphate pH 6.3, 0.1 M sodium ascorbate; CSP curves fitted with a one-site model; conditions: both partners purified
T1 construct: Met80 is M81 in P99999); Reduced with sodium ascorbate in the NMR experiments; also called hemeprotein; reduced Cc; source: E. coli BL21 (DE3), purified (ionic chromatography, carboxy-methylcellulose)
T1 sequence (P99999 whole entry): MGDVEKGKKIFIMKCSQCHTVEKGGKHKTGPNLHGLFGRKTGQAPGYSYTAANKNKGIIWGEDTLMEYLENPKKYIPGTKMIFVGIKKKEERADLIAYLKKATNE

[2] = target: T1, cytochrome c (Cc), recombinant; test: ITC; Auto-ITC200, 25 °C; 2-μL injections of 300 μM Cc into the cell with 20 μM 14-3-3ε species or peptide; 10 mM sodium phosphate pH 7.4; conditions: both partners purified
[3] = target: the molecule itself; test: AUC + other: dynamic light scattering; sedimentation velocity, 20 °C, 45,000 r.p.m., 37 μM, 5 mM sodium phosphate pH 6.3; DLS at 0.1 mg/mL, 25 °C, same buffer
[4] = target: T1, cytochrome c (Cc), recombinant; test: NMR titration; 1D 19F NMR of the fluorinated 14-3-3ε_(234-255) peptide titrated with Cc or BSA; 25 °C; 600 MHz; 10 mM sodium phosphate pH 6.3; conditions: both partners purified

B1: 14-3-3ε C-terminal peptide (14-3-3ε_(234-255)) (peptide, UniProt P62258 234-255, looked up)
peptide: DMQGDGEEQNKEALQDVEDENQ
notes: 14-3-3ε, C-terminal tail, residues 234-255; also called non-acetylated peptide; C-terminal tail of 14-3-3ε; source: bought: Genosphere Biotechnologies (France)
Kd [1]: 49 µM | Kd [2]: 16 µM

B2: 14-3-3ε FL D21K (natural protein, UniProt P62258 1-255, looked up)
chain: MDDREDLVYQAKLAEQAERYKEMVESMKKVAGMDVELTVEERNLLSVAYKNVIGARRASWRIISSIEQKEENKGGEDKLKMIREYRQMVETELKLICCDILDVLDKHLIPAANTGESKVFYYKMKGDYHRYLAEFATGNDRKEAAENSLVAYKAASDIAMTELPPTHPIRLGLALNFSVFYYEILNSPDRACRLAKAAFDDAIAELDTLSEESYKDSTLIMQLLRDNLTLWTSDMQGDGEEQNKEALQDVEDENQ
notes: 14-3-3ε full length with D21K; source: E. coli BL21 (DE3), purified (Ni Sepharose); mutant obtained from Mutagenex Inc
stoichiometry N [3]: 2

B3: 14-3-3ε FL S59E (natural protein, UniProt P62258 1-255, looked up)
chain: MDDREDLVYQAKLAEQAERYDEMVESMKKVAGMDVELTVEERNLLSVAYKNVIGARRAEWRIISSIEQKEENKGGEDKLKMIREYRQMVETELKLICCDILDVLDKHLIPAANTGESKVFYYKMKGDYHRYLAEFATGNDRKEAAENSLVAYKAASDIAMTELPPTHPIRLGLALNFSVFYYEILNSPDRACRLAKAAFDDAIAELDTLSEESYKDSTLIMQLLRDNLTLWTSDMQGDGEEQNKEALQDVEDENQ
notes: 14-3-3ε full length with S59E; source: E. coli BL21 (DE3), purified (Ni Sepharose); mutant obtained from Mutagenex Inc
stoichiometry N [3]: 2

B4: 14-3-3ε FL E92K (natural protein, UniProt P62258 1-255, looked up)
chain: MDDREDLVYQAKLAEQAERYDEMVESMKKVAGMDVELTVEERNLLSVAYKNVIGARRASWRIISSIEQKEENKGGEDKLKMIREYRQMVETKLKLICCDILDVLDKHLIPAANTGESKVFYYKMKGDYHRYLAEFATGNDRKEAAENSLVAYKAASDIAMTELPPTHPIRLGLALNFSVFYYEILNSPDRACRLAKAAFDDAIAELDTLSEESYKDSTLIMQLLRDNLTLWTSDMQGDGEEQNKEALQDVEDENQ
notes: 14-3-3ε full length with E92K; source: E. coli BL21 (DE3), purified (Ni Sepharose); mutant obtained from Mutagenex Inc
stoichiometry N [3]: 2

B5: 14-3-3ε FL S187D (natural protein, UniProt P62258 1-255, looked up)
chain: MDDREDLVYQAKLAEQAERYDEMVESMKKVAGMDVELTVEERNLLSVAYKNVIGARRASWRIISSIEQKEENKGGEDKLKMIREYRQMVETELKLICCDILDVLDKHLIPAANTGESKVFYYKMKGDYHRYLAEFATGNDRKEAAENSLVAYKAASDIAMTELPPTHPIRLGLALNFSVFYYEILNDPDRACRLAKAAFDDAIAELDTLSEESYKDSTLIMQLLRDNLTLWTSDMQGDGEEQNKEALQDVEDENQ
notes: 14-3-3ε full length with S187D; source: E. coli BL21 (DE3), purified (Ni Sepharose); mutant obtained from Mutagenex Inc
stoichiometry N [3]: 2

B6: 14-3-3ε FL K50E (natural protein, UniProt P62258 1-255, looked up)
chain: MDDREDLVYQAKLAEQAERYDEMVESMKKVAGMDVELTVEERNLLSVAYENVIGARRASWRIISSIEQKEENKGGEDKLKMIREYRQMVETELKLICCDILDVLDKHLIPAANTGESKVFYYKMKGDYHRYLAEFATGNDRKEAAENSLVAYKAASDIAMTELPPTHPIRLGLALNFSVFYYEILNSPDRACRLAKAAFDDAIAELDTLSEESYKDSTLIMQLLRDNLTLWTSDMQGDGEEQNKEALQDVEDENQ
notes: 14-3-3ε full length with K50E; source: E. coli BL21 (DE3), purified (Ni Sepharose); mutant obtained from Mutagenex Inc
stoichiometry N [3]: 2

B7: 14-3-3ε FL D99K (natural protein, UniProt P62258 1-255, looked up)
chain: MDDREDLVYQAKLAEQAERYDEMVESMKKVAGMDVELTVEERNLLSVAYKNVIGARRASWRIISSIEQKEENKGGEDKLKMIREYRQMVETELKLICCKILDVLDKHLIPAANTGESKVFYYKMKGDYHRYLAEFATGNDRKEAAENSLVAYKAASDIAMTELPPTHPIRLGLALNFSVFYYEILNSPDRACRLAKAAFDDAIAELDTLSEESYKDSTLIMQLLRDNLTLWTSDMQGDGEEQNKEALQDVEDENQ
notes: 14-3-3ε full length with D99K; source: E. coli BL21 (DE3), purified (Ni Sepharose); mutant obtained from Mutagenex Inc
stoichiometry N [3]: 2

B8: fluorinated 14-3-3ε_(234-255) peptide (Lys244 covalently bound to 5-fluorindole) (peptide, UniProt P62258 234-255, looked up)
peptide: Ac-DMQGDGEEQNK(5‑fluorindole)EALQDVEDENQ
notes: 14-3-3ε, C-terminal tail, residues 234-255; source: acetylated 14-3-3ε_(234-255) peptide conjugated with 5-fluoroindole (formaldehyde, 24 h, 30 °C), dialyzed
binding result [4]: binds

B9: acetylated 14-3-3ε_(234-255) peptide (peptide, UniProt P62258 234-255, looked up)
peptide: Ac-DMQGDGEEQNKEALQDVEDENQ
notes: 14-3-3ε, C-terminal tail, residues 234-255, N-terminally acetylated; also called acetylated peptide
binding result [2]: binds
